Source: US20200109188A1 (AstraZeneca / MedImmune, published 2020)

What was measured:
[1] = target: HA of ca A/Hong Kong/213/03 (H5N1) virus (influenza A virus); experiment: cell-based or functional assay
[2] = target: HA of A/New Jersey/8/76 (H1N1) virus (influenza A virus); experiment: cell-based or functional assay
[3] = target: HA of ca A/mallard/Alberta/89/85 (H6N2) virus (influenza A virus); experiment: cell-based or functional assay
[4] = target: HA of ca A/teal/Hong Kong/W312/97 (H6N1) virus (influenza A virus); experiment: cell-based or functional assay
[5] = target: HA of ca A/Japan/57 (H2N2) virus (influenza A virus); experiment: cell-based or functional assay
[6] = target: HA of ca A/Brit. Columbia/CN-6/04 (H7N3-LP) virus (influenza A virus); experiment: cell-based or functional assay
[7] = target: HA of ca A/swine/Missouri/06 (H2N3) virus (influenza A virus); experiment: cell-based or functional assay
[8] = target: HA of ca A/Vietnam/1203/04 (H5N1) virus (influenza A virus); experiment: cell-based or functional assay
[9] = target: HA of ca A/Netherlands/219/03 (H7N7) virus (influenza A virus); experiment: cell-based or functional assay
[10] = target: HA of ca A/chicken/Hong Kong/G9/97 (H9N2) virus (influenza A virus); experiment: cell-based or functional assay
[11] = target: HA of ca A/Anhui/1/13 (H7N9) virus (influenza A virus); experiment: cell-based or functional assay
[12] = target: HA subtype H4 (A/duck/Czechoslovakia/56 (H4N6)) on HEK cells (influenza A virus, UniProt P19696 17-564); experiment: flow cytometry, HA-transfected HEK cells, 5 ug/ml antibody
Sequence of HA subtype H4 (A/duck/Czechoslovakia/56 (H4N6)) on HEK cells (P19696 17-564): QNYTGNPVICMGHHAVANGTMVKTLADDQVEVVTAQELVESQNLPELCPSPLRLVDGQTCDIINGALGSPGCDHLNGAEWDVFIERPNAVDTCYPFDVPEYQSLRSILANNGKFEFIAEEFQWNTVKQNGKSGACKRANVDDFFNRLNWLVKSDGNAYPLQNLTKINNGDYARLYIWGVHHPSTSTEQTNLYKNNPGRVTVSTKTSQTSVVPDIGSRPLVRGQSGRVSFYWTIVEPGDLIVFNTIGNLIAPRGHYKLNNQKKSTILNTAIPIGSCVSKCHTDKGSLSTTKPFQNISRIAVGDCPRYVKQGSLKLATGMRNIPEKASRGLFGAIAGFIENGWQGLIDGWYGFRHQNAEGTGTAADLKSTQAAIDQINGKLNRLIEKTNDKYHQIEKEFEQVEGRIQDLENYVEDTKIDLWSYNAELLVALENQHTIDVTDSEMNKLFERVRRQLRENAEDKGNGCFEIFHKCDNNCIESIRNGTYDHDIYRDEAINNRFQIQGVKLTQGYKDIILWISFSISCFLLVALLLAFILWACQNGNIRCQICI

[13] = target: HA subtype H13 (A/gull/Maryland/704/77 (H13N6)) on HEK cells (influenza A virus, UniProt P13103 19-566); experiment: as above
Sequence of HA subtype H13 (A/gull/Maryland/704/77 (H13N6)) on HEK cells (P13103 19-566): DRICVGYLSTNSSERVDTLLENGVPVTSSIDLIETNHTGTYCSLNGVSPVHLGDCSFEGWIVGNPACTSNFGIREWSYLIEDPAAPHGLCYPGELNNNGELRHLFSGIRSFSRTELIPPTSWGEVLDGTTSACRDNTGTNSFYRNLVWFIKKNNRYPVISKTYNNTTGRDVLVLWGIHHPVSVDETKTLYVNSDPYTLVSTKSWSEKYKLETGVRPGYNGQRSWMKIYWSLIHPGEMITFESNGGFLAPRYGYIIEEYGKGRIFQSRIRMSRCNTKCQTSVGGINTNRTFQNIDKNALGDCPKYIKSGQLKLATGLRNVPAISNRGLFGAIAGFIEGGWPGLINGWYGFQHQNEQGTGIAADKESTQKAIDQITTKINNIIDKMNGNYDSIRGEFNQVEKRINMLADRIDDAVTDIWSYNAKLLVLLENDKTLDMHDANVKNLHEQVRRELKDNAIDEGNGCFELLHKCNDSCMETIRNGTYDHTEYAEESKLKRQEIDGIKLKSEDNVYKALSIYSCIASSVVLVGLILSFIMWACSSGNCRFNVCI

[14] = target: HA subtype H12 (A/duck/Alberta/60/76 (H12N5)) on HEK cells (influenza A virus, UniProt P03446 17-564); experiment: as above
Sequence of HA subtype H12 (A/duck/Alberta/60/76 (H12N5)) on HEK cells (P03446 17-564): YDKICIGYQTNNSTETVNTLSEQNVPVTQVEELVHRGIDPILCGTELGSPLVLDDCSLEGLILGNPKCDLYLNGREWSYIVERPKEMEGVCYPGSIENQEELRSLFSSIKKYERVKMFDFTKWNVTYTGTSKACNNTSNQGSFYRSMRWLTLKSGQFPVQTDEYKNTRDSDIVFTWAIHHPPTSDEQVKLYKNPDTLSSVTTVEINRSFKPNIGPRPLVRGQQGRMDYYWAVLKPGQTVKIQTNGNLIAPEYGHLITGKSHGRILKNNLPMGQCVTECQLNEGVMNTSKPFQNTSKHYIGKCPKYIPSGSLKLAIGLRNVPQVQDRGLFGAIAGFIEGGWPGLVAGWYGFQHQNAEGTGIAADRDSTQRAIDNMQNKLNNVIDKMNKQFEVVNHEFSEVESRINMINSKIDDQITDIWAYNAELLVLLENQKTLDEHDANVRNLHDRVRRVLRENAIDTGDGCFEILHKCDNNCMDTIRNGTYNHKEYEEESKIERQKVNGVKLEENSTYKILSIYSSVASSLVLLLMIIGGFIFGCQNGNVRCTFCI

[15] = target: HA subtype H14 (A/mallard/Astrakhan/263/82 (H14N5)) on HEK cells (influenza A virus, UniProt P26136 18-568); experiment: as above
Sequence of HA subtype H14 (A/mallard/Astrakhan/263/82 (H14N5)) on HEK cells (P26136 18-568): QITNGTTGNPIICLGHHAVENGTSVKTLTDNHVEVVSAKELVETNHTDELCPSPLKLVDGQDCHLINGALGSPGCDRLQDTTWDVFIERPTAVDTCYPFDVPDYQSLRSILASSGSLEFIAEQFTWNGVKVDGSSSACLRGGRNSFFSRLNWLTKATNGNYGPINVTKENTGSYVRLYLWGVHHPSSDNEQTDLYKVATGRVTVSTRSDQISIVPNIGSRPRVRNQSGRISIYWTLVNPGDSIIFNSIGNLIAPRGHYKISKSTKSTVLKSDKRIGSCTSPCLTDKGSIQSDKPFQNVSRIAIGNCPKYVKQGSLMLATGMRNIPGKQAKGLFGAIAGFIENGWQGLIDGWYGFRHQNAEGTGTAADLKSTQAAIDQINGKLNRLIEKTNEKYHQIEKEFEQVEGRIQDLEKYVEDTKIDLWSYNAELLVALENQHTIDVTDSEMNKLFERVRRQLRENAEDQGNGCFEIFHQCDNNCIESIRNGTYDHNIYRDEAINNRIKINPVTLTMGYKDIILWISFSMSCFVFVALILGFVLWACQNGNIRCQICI

[16] = target: HA subtype H10 (A/chicken/Germany/N49 (H10N7)) on HEK cells (influenza A virus, UniProt P12581 17-561); experiment: as above
Sequence of HA subtype H10 (A/chicken/Germany/N49 (H10N7)) on HEK cells (P12581 17-561): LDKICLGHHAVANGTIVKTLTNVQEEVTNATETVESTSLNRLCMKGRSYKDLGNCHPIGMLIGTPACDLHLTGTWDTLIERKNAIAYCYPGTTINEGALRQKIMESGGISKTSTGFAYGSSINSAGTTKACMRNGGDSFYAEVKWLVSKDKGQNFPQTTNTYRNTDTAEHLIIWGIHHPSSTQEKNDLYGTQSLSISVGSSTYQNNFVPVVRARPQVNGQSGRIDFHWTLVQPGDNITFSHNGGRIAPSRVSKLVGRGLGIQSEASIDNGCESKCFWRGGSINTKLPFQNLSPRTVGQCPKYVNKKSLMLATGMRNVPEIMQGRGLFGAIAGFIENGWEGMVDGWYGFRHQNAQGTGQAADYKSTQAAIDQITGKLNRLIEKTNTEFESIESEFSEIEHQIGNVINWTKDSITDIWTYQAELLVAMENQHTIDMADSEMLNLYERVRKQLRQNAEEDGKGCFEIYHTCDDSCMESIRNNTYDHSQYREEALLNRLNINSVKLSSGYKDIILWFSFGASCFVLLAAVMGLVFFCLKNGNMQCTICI

Binder | Neutralization IC50, H5-HK03 [1] [µg/mL] | Neutralization IC50, H1-NJ76 [2] [µg/mL] | Neutralization IC50, H6-AB85 [3] [µg/mL] | Neutralization IC50, H6-HK97 [4] [µg/mL] | Neutralization IC50, H2-JP57 [5] [µg/mL] | Neutralization IC50, H7-BC04 [6] [µg/mL] | Neutralization IC50, H2-MO06 [7] [µg/mL] | Neutralization IC50, H5-VM04 [8] [µg/mL] | Neutralization IC50, H7-NLD03 [9] [µg/mL] | Neutralization IC50, H9-HK97 [10] [µg/mL] | Neutralization IC50, H7-ANU13 [11] [µg/mL] | binding result [12] | binding result [13] | binding result [14] | binding result [15] | binding result [16]
Antibody 11 (antibody, V domains shown) VH: QVQLQQSGPGLVKPSQTLSLTCAISGDSVSSYNAVWNWIRQSPSRGLEWLGRTYYRSGWYNDYAESVKSRITINPDTSKNQFSLQLNSVTPEDTAVYYCARSGHITVFGVNVDAFDMWGQGTMVTVSS VL: DIQMTQSPSSLSASVGDRVTITCRTSQSLSSYTHWYQQKPGKAPKLLIYAASSRLSGVPSRFSGSGSGTDFTLTISSLQPEDFATYYCQQSRTFGQGTKVEIK | 0.21 | 0.13 | 0.24 | 0.4 | 0.31 | 0.71 | 0.6 | 0.57 | 0.94 | 0.36 | – | – | – | – | – | –
Antibody 15 (antibody, V domains shown) VH: QVQLQQSGPGLVKPSQTLSLTCAISGDSVSSNNAVWNWIRQSPSRGLEWLGRTYYRSKWYNDYAESVKSRITINPDTSKNQFSLQLNSVTPEDTAVYYCARSGHITVFGVNVDAFDMWGQGTTVTVSS VL: DIQMTQSPSSLSASVGDRVTITCRTSQSLSSYTHWYQQKPGKAPKLLIYAASSRGSGVPSRFSGSGSGTDFTLTISSLQPEDFATYYCQQSRTFGQGTKVEIK | 0.05 | 0.25 | 0.19 | 0.33 | 0.33 | 1.25 | 0.83 | 0.28 | 1.3 | 0.35 | – | – | – | – | – | –
Antibody 13 (antibody, V domains shown) VH: QVQLQQSGPGLVKPSQTLSLTCAISGDSVSSYNAVWNWIRQSPSRGLEWLGRTYYRSGWYNDYAESVKSRITINPDTSKNQFSLQLNSVTPEDTAVYYCARSGHITVFGVNVDAFDMWGQGTMVTVSS VL: DIQMTQSPSSLSASVGDRVTITCRTSQSLSSYDHWYQQKPGKAPKLLIYAASSRLSGVPSRFSGSGSGTDFTLTISSLQPEDFATYYCQQSRTFGQGTKVEIK | 0.17 | 0.12 | 0.29 | 0.55 | 0.47 | 0.96 | 0.57 | 0.56 | 2.45 | 0.29 | – | – | – | – | – | –
Antibody 14 (antibody, V domains shown) VH: QVQLQQSGPGLVKPSQTLSLTCAISGDSVSSNNAVWNWIRQSPSRGLEWLGRTYYRSKWYNDYAESVKSRITINPDTSKNQFSLQLNSVTPEDTAVYYCARSGHITVFGVNVDAFDMWGQGTTVTVSS VL: DIQMTQSPSSLSASVGDRVTITCRTSQSLSSYTHWYQQKPGKAPKLLIYAASSRLSGVPSRFSGSGSGTDFTLTISSLQPEDFATYYCQQSRTFGQGTKVEIK | 0.21 | 0.11 | 0.26 | 0.26 | 0.67 | 0.86 | 0.65 | 0.33 | 1.16 | 0.44 | 2.12 | – | – | – | – | –
Antibody 12 (antibody, V domains shown) VH: QVQLQQSGPGLVKPSQTLSLTCAISGDSVSSYNAVWNWIRQSPSRGLEWLGRTYYRSGWYNDYAESVKSRITINPDTSKNQFSLQLNSVTPEDTAVYYCARSGHITVFGVNVDAFDMWGQGTMVTVSS VL: DIQMTQSPSSLSASVGDRVTITCRTSQSLSSYTHWYQQKPGKAPKLLIYAASSRGSGVPSRFSGSGSGTDFTLTISSLQPEDFATYYCQQSRTFGQGTKVEIK | 0.17 | 0.12 | 0.32 | 0.45 | 0.35 | 0.78 | 0.53 | 0.31 | 0.83 | 0.31 | 2.56 | binds | binds | binds | binds | binds
